Measured values reported in article PMC8812904.

How the values were obtained:
[1] = immunoblot with TBSV P19 co-expression, 2 dpai; settings: glycan lost; control: AtVSR4 wild type with P19
[2] = GFP fluorescence under UV, N. benthamiana, 3 dpai; settings: glycan lost; control: AtVSR4-myc co-expression
[3] = confocal counting of punctate bodies, 2 dpai; settings: glycan lost; control: AtVSR4-myc co-expression
[4] = immunoblot of TuMV CP, N. benthamiana; settings: glycan lost; control: AtVSR4-myc co-expression
[5] = qRT-PCR of TuMV (+) and (-) RNA, N. benthamiana; settings: glycan lost; control: AtVSR4-myc co-expression
[6] = anti-myc immunoblot, N. benthamiana, 2 dpai; settings: glycan lost; control: AtVSR4-myc wild type
[7] = symptom observation, 16 dpi; settings: glycan lost; control: AtVSR4oe transgenic Arabidopsis
[8] = qRT-PCR of TuMV RNA, transgenic Arabidopsis, 16 dpi; settings: glycan lost; control: AtVSR4oe transgenic Arabidopsis

B1: AtVSR4 (vacuolar sorting receptor 4): AtVSR4TM (protein)
parent chain: MKQLLCYLPWLLLLSLVVSPFNEARFVVEKNSLSVTSPESIKGTHDSAIGNFGIPQYGGSMAGTVVYPKENQKSCKEFSDFSISFKSQPGALPTFLLVDRGDCFFALKVWNAQKAGASAVLVADNVDEPLITMDTPEEDVSSAKYIENITIPSALVTKGFGEKLKKAISGGDMVNLNLDWREAVPHPDDRVEYELWTNSNDECGVKCDMLMEFVKDFKGAAQILEKGGFTQFRPHYITWYCPHAFTLSRQCKSQCINKGRYCAPDPEQDFSSGYDGKDVVVENLRQLCVYKVANETGKPWVWWDYVTDFQIRCPMKEKKYNKDCAESVIKSLGIDSRKIDKCMGDPDADLDNPVLKEEQDAQVGKGTRGDVTILPTLVVNNRQYRGKLEKSAVLKALCSGFEESTEPAICLSTDMETNECLDNNGGCWQDKSANITACKDTFRGKVCVCPIVDGVRFKGDGYSHCEPSGPGRCTINNGGCWHEERDGHAFSACVDKDSVKCECPPGFKGDGVKKCEDINECKEKKACQCPECSCKNTWGSYECSCSGDLLYMRDHDTCISKTGSQVKSAWAAVWLIMLSLGLAAAGAYLVYKYRLRQYMDSEIRAIMAQYMPLDSQPEVPNHTNDERA
expression_or_secretion [1]: decreases
other: viral replication [2]: increases
other: formation of 6K2 punctate bodies [3]: increases
other: viral replication, fold_change [4]: increases
other: viral replication, fold_change [5]: increases

B2: AtVSR4 (vacuolar sorting receptor 4): AtVSR4TM-myc (protein)
parent chain: B1 parent chain
expression_or_secretion [6]: decreases

B3: AtVSR4 (vacuolar sorting receptor 4): AtVSR4TMoe (protein)
parent chain: B1 parent chain
other: viral symptom severity in plants [7]: increases
other: viral replication [8]: increases
